By Kd is commonly meant a measure of binding affinity in units of concentration. The koff is the rate constant with which the complex falls apart. Higher therefore signals a short-lived complex. By kon is commonly meant the second-order rate constant of association. A higher kon goes with fast association.

Data on four molecules can be found in US20210317201A1.

Residue numbers refer to the chain shown, from its start. Several values for one entry are separate records, joined by “and”; a condition that tells them apart may be missing. Equal values may be shown once.

The target of assay [1] is recombinant human IL-23 (human) (UniProt P29460). In words: cell-based or functional assay.
Sequence of recombinant human IL-23 (human) (chain, as listed by the source limits assumed, chain 1 of 2): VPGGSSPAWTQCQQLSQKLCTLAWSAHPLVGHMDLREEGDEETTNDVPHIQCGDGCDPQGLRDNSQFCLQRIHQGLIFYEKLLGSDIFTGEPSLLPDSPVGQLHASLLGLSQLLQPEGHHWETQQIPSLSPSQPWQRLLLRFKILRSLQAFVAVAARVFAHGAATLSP
Sequence of recombinant human IL-23 (human) (P29460 23-328 limits assumed, chain 2 of 2): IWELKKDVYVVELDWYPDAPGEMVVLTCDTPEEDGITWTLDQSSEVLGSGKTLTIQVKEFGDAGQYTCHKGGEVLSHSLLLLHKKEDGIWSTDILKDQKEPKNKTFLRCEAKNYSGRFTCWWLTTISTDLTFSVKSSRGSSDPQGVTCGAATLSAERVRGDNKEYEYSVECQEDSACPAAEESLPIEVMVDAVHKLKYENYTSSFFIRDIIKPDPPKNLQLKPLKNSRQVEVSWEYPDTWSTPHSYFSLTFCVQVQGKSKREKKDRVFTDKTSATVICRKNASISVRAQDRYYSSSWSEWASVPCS
In assay [2] the target is cynomologous IL-23 (cynomolgus monkey). The assay is described as follows: SPR, ProteOn XPR36, global 1:1 fit.
Assay [3] has as its target Human IL-23 no linker (human) (UniProt P29460). In words: SPR, ProteOn XPR36, global 1:1 fit.
For assay [4], the target named is natural human IL-23 from activated THP-1 cells (human) (UniProt P29460). The assay is described as follows: cell-based or functional assay.
Sequence of natural human IL-23 from activated THP-1 cells (human) (chain, as listed by the source limits assumed, chain 1 of 2): as the sequence (chain, as listed by the source limits assumed, chain 1 of 2) above
Sequence of natural human IL-23 from activated THP-1 cells (human) (P29460 23-328 limits assumed, chain 2 of 2): as the sequence (P29460 23-328 limits assumed, chain 2 of 2) above
Assay [5] addresses Human IL-23 with linker (human) (UniProt P29460). The assay is described as follows: SPR, ProteOn XPR36, global 1:1 fit.

Sequence of Human IL-23 no linker (human) (chain, as listed by the source limits assumed, chain 1 of 2): as the sequence (chain, as listed by the source limits assumed, chain 1 of 2) above
Sequence of Human IL-23 no linker (human) (P29460 23-328 limits assumed, chain 2 of 2): as the sequence (P29460 23-328 limits assumed, chain 2 of 2) above

B1: Antibody 6H12 (disclosed in WO 2007/027714) (antibody, from another filing, V domains shown)
VH: EVHLQQSGPELVKPGASVKMSCKASGYTFNRYLIHWVKQKPGQGLEWIGYINPNNDGTNYNEKFKGKATLTSDKSSSTAYMELSSLTSEDSAVYYCAANWDQAYWGQGTLVTVSA
VL: DIVMTQSPATLSVTPGDRVSLSCRASQSISDYLHWYQQKSHESPRLLIKYTSQSISGIPSRFSGSGSGSDFTLSINSVEPEDVGVYYCQNGHSFPFTFGSGTKLEIKR
B1: in assay [1], the IC50, IL-23 stimulated IL-17 production from mouse splenocytes was 1600 pM and 806 pM and 1300 pM. In assay [2], the Kd was determined as 157 pM, the koff was found to be 0.000156 s⁻¹ and the kon worked out at 991000 M⁻¹ s⁻¹. In assay [3], this molecule had a Kd of 214 pM, a koff of 0.000107 s⁻¹ and a kon of 499000 M⁻¹ s⁻¹.

B2: antibody C1273 (disclosed in WO 2007/005955) (antibody, from another filing, V domains shown)
VH: DVNLVESGGGLVKPGGSLKLSCAASGFTFSSYTMSWVRQTPEKRLEWVATISSGGTYTYYPDSVKGRFTISRDNAKNTLYLQMSSLKSEDTAMFYCTRDNHAYDRGPFFDYWGQGATLTVSS
VL: DIVMSQSPSSLVVSVGEKVTMSCKSSQNLFYRSNQKNHLAWYQQKPGQSPTLLIYWTSTRESGVPDRFTGSGSGTDFTLTISRVKAEDLAVYYCQQYYSYPPTFGGGTKLEIK
On to B2, for which, in assay [1], the IC50, IL-23 induced STAT3 phosphorylation in human DB cells (phospho-STAT3 ELISA) is 163 pM and 438 pM. Besides, the IC50, IL-23 stimulated IL-17 production from mouse splenocytes in assay [4] is 93 pM and 44 pM.

B3: Antibody B (antibody, human IgG1, kappa, L234A L235A, V domains shown)
VH: QVQLVQSGAEVKKPGSSVKVSCKASGFTFTDQTIHWVRQAPGQGLEWMGYIYPRDDSPKYNENFKGKVTLTADKSTSTAYMELSSLRSEDTAVYYCAIPDRSGYAWFIYWGQGTLVTVSS
VL: DIQMTQSPSSLSASVGDRVTITCKASRDVAIAVAWYQQKPGKVPKLLIYWASTRHTGVPSRFSGSGSRTDFTLTISSLQPEDVADYFCHQYSSYPFTFGSGTKLEIKR
On to B3, for which, in assay [5], the Kd was less than 1 pM, the koff was less than 1e-06 s⁻¹ and the association rate constant (kon) was found to be 356000 M⁻¹ s⁻¹.

B4: Antibody D (antibody, human IgG1, kappa, L234A L235A, V domains shown)
VH: B3 VH
VL: B3 VL with I48L, Y49F, S60D, R68G, V83L, F87Y, S100Q
In assay [5], B4 yielded a Kd of 107 pM, a koff of 4.07e-05 s⁻¹ and a kon of 382000 M⁻¹ s⁻¹.
